Assay results published in the supplement of paper PMC9170038.
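Further: bound reporter read as fluorescence of individual clusters on recovered sequencing chips by microscopy, with normalized cluster intensities fitted with a binding model.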

What follows are sequences tested on K4 kissing-loop RNA reporter (assay: apparent KD of K4 kissing-loop reporter; higher = weaker reporter binding). Settings: Eterna round: R107; input ligand: FMN 200 uM.
Experimental: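 RNA-MaP round R107: designed RNA switches with theophylline, tryptophan, arginine or FMN aptamers are transcribed on-chip within common flanks. They are titrated with a labelled K4 kissing-loop RNA reporter in RNA-MaP buffer (100 mM Tris pH 7.5, 80 mM KCl, 4 mM MgCl2), without ligand or with the indicated ligand. Median apparent KD per design.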
In the case of “GGUAUCUAUACAGAUACCAGUCGUAUAGGUCGAUUACAGGUUAGUGAUGUUAACCUGUACGACCCUUGGCAGCUGUAUAAUAAUA [Theo B Ex t2]”, the “apparent KD of K4 kissing-loop reporter” value is reported as 0.062 µM. “AGGGUAAGGCGUUAACAUGACACCUGGGAAGGAGCGCGGUACACCGCAGGUAGGUCGCCCAGUGAUGUUGGGUGUAUGUAUGAGU [KL-XArg-A21]” was tested, and the “apparent KD of K4 kissing-loop reporter” value was 0.17 µM. “GUAUGUGGAAACACGUACUUAUAUCCUAGGCAGGAUAUGCGGAAACGCAGAAGGGCCACCGGCGAGAAAAUCCAGUGAUGUUGGA [Ex FMN A 7]” was tested, and the “apparent KD of K4 kissing-loop reporter” value was 0.26 µM. For “CGGUUUGGUUGAGAGGUUGGGCCGAAUGAUACCAGUAUAUAAGAAUACCCUUGGCAGCAUAAGAAAGAUAUAGUGAUGUUGUAUA [SSTheophA.J]”, the “apparent KD of K4 kissing-loop reporter” value was 0.475 µM. For “CGCAGUGAUGUUGCGAAUAUAAUGCAUUCAGAGGAUAUUCGUUUGGGAAGAAGGCUGAAUCGUUCUUCGAGUGAUGUUCGAGGAA [Same State FMN A GF 17]”, the “apparent KD of K4 kissing-loop reporter” value was 0.141 µM. “AGGAGCGUGGGAUGCAAAUCGCACGCUCCUCGAGGACCGGUACGGCCGCCACUCGCUCGCGCCGAGUGAUGUUCGGCCGGCGAAC [#2 Same State - Tryptophan A Attempt #14 (HarryS)]” was tested, and the “apparent KD of K4 kissing-loop reporter” value was 0.221 µM. For “AUAUUGGUUGAGAGUGAUGUUCCUUGUGUUCGAGGACCGGUACGGCCGCCACUCGGGUAGAAAAUAAAAGAUGUGUUUGAUUUUU [BDazzled - #13 SS Tryptophan A]”, the “apparent KD of K4 kissing-loop reporter” value was 0.237 µM. With “GUAUCGCUAGGAGGAUAUUCCAUUUUACAUAUAAAUGGAUAUGCGGAGUGAUGUUCCGAUUUACGGGAAGAAGGCCUAGUGAUAC [FMN B 20]” the “apparent KD of K4 kissing-loop reporter” value was 0.138 µM. In the case of “UAUUGGAGUGAUGUUCCAUUAACGAUCCUACGAGGACCGGUACGGCCGCCACUCGAAAUGCAGUGAUGUUGCAGCCAGCCGUAAA [Exclusion Trptophan A GF 7]”, the “apparent KD of K4 kissing-loop reporter” value is reported as 0.174 µM. In the case of “AAAUGUAUCUGAAGGAGCGUGAAAUAAUAUUAGACAUAAUAGCCCAGUGAUGUUGGGUUAUCACAGGUAGGUCGCAGAUGUAUAA [Same State Arginie B GF 26]”, the “apparent KD of K4 kissing-loop reporter” value is reported as 0.112 µM. In the case of “AAUAAAAUCACGGCCGCCACUGAAUAAUUGGUAAGUAGUGAUGUUACUUUACAUAUCUUAUUUAACAGGACCGGGUGAAUAUUUA [JR_ExcTryptoB_Sub008]”, the “apparent KD of K4 kissing-loop reporter” value is reported as 0.134 µM. For “UAUGUACACGGGUAGUGGUACAUCGAGGAAGGAGCGUGCGCAGGCACAGGUAGGUCGCCUCAGCGCACGAGUGAUGUUCGUGGGC [Inares]”, the “apparent KD of K4 kissing-loop reporter” value was 0.327 µM. “CGGAGUGAUGUUCCGUUAAUUCCUUAUUUACGAGGACCGGUACGGCCGCCACUCGAUUUUGCUUUUAUUUAAUGUUUGGAAAUUU [JR_SSTryptoA_Sub007]” was tested, and the “apparent KD of K4 kissing-loop reporter” value was 0.256 µM. For “AAAGGUUGAAGUGAUACCAGACUAGCAGUGAUGUUGCGCCAAAGUGAGUGAUGUUCACCAGUCCCUUGGCAGCACAUGCCUAAAG [Same State Theophylline B GF 13]”, the “apparent KD of K4 kissing-loop reporter” value was 0.985 µM. For “UGUACCGAGUAAGGAUAUGUCGUCGAAAGACGAAAUGGAGUGAUGUUCCUUAAACUGCGAAAGCAGACAGAAGGUACUUGGUACU [FmnBS 29 A11+U75]”, the “apparent KD of K4 kissing-loop reporter” value was 0.139 µM. For “UUUUAUUAAUACUUCUAGUGAUGUUAGAUACGAGGACCGGUACGGCCGCCACUCGCUUAUUGGUUUAUAUAUUUUUUAUUCUUUA [JR_SSTryptoA_Sub013]”, the “apparent KD of K4 kissing-loop reporter” value was 0.276 µM.

Same assay, conditions: Eterna round: R107; input ligand: arginine 13.2 mM
For “AGAUAGGGCUGAAGGAGCGUCGGAGAAGAAAAGAAGAAAUCCAGUGAUGUUGGAUAAAUCCGACAGGUAGGUCGCAGUUUUAUGA [hbob_SS_Arginine_B_2t136]”, the “apparent KD of K4 kissing-loop reporter” value was 0.116 µM. In the case of “AAGUGAUGUUGUAGUGAUGUUGUGAUGUUGCAGGAUAUAUAGUGAUGUAGAAGGGUAAGUACUGAUUUUUUUUUUGAGUGAUGUU [ccbyzrmullin]”, the “apparent KD of K4 kissing-loop reporter” value is reported as 0.043 µM. For “UGAUUUAACUGAAGGAGCGGCAAUUGAUAAGUAAAUAUAGUGAUGUUAUAUAAGAUAGAGAGCCAGGUAGGUCGCAGAGGUAUUA [ExArgB.M]”, the “apparent KD of K4 kissing-loop reporter” value was 0.154 µM. For “AACGCCACCGCGGAUACCAGAGCCAGUGAUGUUGGAUCUGGAAAUUCGUGGGUAAGCUGGCUCCCUUGGCAGCUGCGGUUCUUUU [Tiisaron]”, the “apparent KD of K4 kissing-loop reporter” value was 0.112 µM. In the case of “AUUAAUAACUGAGGAUAUCGAAAUUAUGUAGUGAUGUUACUGUAAAUUCAAAUUUUCAUUUCUUAACGAGAAGGCAGAAUAAUUA [JR_ExcFMNB_Sub012]”, the “apparent KD of K4 kissing-loop reporter” value is reported as 0.185 µM. In the case of “GUCAACCCAGCUGAUACCAGCCGGUUACGCACAUGCACACCCAGUGAUGUUGGGUAUUAGGGCCCUUGGCAGCAGCCUCUUGGCU [theeternabot_sameState_KL_Theo_B_30]”, the “apparent KD of K4 kissing-loop reporter” value is reported as 0.162 µM. With “AUGAGGAACAGUGAUCCUACUCCAUGGGAAGGAGCGUAGGAUACUACAGGUAGGUCGCCCAGUGAUGUUGGGCGCGUGUUCUUGG [Ermaar]” the “apparent KD of K4 kissing-loop reporter” value was 0.114 µM. For “UGAUACCAGACGGCCGCCACUAGGACCGGGAGUGAUGUUCCCAAAUUAAAAUACUCGGCCGCCACUAGGACCGGGUCUGGUAUCU [TrypBX 26 #DoubleAptamer #SwitchBubble]”, the “apparent KD of K4 kissing-loop reporter” value was 0.269 µM. In the case of “AAUAAGCGUGGAAGGAGCGUCGUCCAGUGAUGUUGGAGUUAGAUACCAGUGAUGUUGGUUAGGCAGGUAGGUCGCCGCAAAGCUU [Exclusion Arginine B Gf 7]”, the “apparent KD of K4 kissing-loop reporter” value is reported as 0.0676 µM. “CCUUCCACAGAAGGAUAUCGGAGUGAUGUUCCCAAGCAGACCUCAAAGUGGGUAGCCAGUCAGUUCCGAGAAGGUCUGCAGCGAG [theeternabot_exclusion_KL_FMN_B_26]” was tested, and the “apparent KD of K4 kissing-loop reporter” value was 0.28 µM.
